Assay results as given in publication doi:10.1101/2020.08.15.252130.
Read-outs that look alike come from different tables or passages of the source.

T1: LS2 linker-RRM2 (Drosophila melanogaster, UniProt Q9W1T4 204-325)
T1 sequence: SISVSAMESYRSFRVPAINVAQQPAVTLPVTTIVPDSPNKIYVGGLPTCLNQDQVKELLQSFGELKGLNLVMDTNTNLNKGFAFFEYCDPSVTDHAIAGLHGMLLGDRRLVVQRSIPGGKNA


Tests used:
Experiment in all cases: NMR
LS2 RRM1 [1] = target: T2, LS2 RRM1 (Drosophila melanogaster, UniProt Q9W1T4 110-204)
LS2 RRM2 = LS2 RRM2 (Drosophila melanogaster, UniProt Q9W1T4 242-319)
LS2 RRM1 [2] = target: T2, LS2 RRM1; remark: listed apart in the source
LS2 linker-RRM2 = target: T1, LS2 linker-RRM2
LS2 RRM1,2 = LS2 RRM1,2 (Drosophila melanogaster, UniProt Q9W1T4 110-325)

Binder	binding result (LS2 RRM1 [1])	binding result (LS2 RRM2)	binding result (LS2 RRM1 [2])	binding result (LS2 linker-RRM2)	binding result (LS2 RRM1,2)
GGUGGUGG (structured_RNA) [8-mer]	binds				
GGGUGGUGGAGGGG (structured_RNA) [14-mer]	binds	no binding			
GGGGAGGAGGGGGGCGUAUGA (structured_RNA) [21-mer G4 RNA]		binds	binds	binds	binds
CGUAUGA (ssRNA) [7-mer (3' end of 21-mer)]		no binding			
